Consider one protein from paper PMC3315643.

Substrate in data set [1]: O=C1C=CC(=O)C(Cl)=C1
Description: purified protein. The conditions noted are these: pH 5.0; 30.0 °C.

Substrate in data set [2]: O=C1C=CC(=O)C=C1
Description: purified protein. The conditions noted are these: pH 4.0; 30.0 °C.

Broadly, the Km is the substrate concentration at which the rate is half of its maximum. The term kcat/Km denotes the second-order rate constant that governs catalysis at low substrate concentration.

B1: recPDH1 (recombinant pyranose dehydrogenase PDH1) (Macropsalliota meleagris) (protein)
chain: AITYQHPDDLPSGVDYDFIVAGGGTAGLVVASRLSENSNWKVLVIEAGPSNKDAFVTRVPGLASTLGAGSPIDWNYTTIPQDGLDGRSLDYPRAKILGGCSTHNGMVYTRGSKDDWNSWAGIIGDQGLGWDSILPAIKKAEKFTQDFTDQSVKGHIDPSVHGFDGKLSVSAAYSNISFNDLLFETTKELNAEFPFKLDMNDGKPIGLGWTQYTIDNHAERSSSATSYLESTGDNVHVLVNTLVTRVLSASGNGTDFRKVEFAVDANSPKKQLEAKKEVIVAGGVIASPQILMNSGIGERKVLQAVGIDTLIDNPSVGKNLSDQGATSVMFDTTLPSTDFDVDAALTEWTNSHTGPLARGARLNHLTFVRLPDDKLNGQDPSSGKNSPHIEFQFAQITPQVPTLGVPKQAPLPAANSYRLLLQLAVVNLYSISRGSISLSDNNPFTYPLIDLNMFKEDIDIAILREGIRSAGRMFSSKAFKNSVNKFVYPPADATSDEDLDAFLRSSTFSYVHGVGTLSMSPKGASWGVVNPDFKVKGTSGLRVVDASVIPHAPAAHTQLPVYAFAEYASALIAKSYN
With B1, the results for the Km in data set [1] and in data set [2] were 0.62 ± 0.11 mM and 1.38 ± 0.28 mM, respectively. The catalytic efficiency (kcat/Km) in data set [1] was 20900 M⁻¹ s⁻¹; in data set [2], 54400 M⁻¹ s⁻¹.
